Measurements: US20250296971A1, “GASTRIC INHIBITORY PEPTIDE RECEPTOR LIGANDS” (priority 2021, published 2025)
*1 amine or outer side, *2 acyl side, *3 side chain or, on linkers, in order; H or OH if unused. Bridges are numbered along the chain shown (N, C = ends). Primed or numbered codes have the meaning given here. Where no end group is shown, it is not given here. Side-chain parts run from the residue outwards. [ ]: non-standard residue; d: D form. The star is where a group is joined. Ttds = 1,13-diamino-4,7,10-trioxatridecan-succinamic acid, NCCCOCCOCCOCCCNC(=O)CCC(=O)*; DOTA(In) = O=C1CN2CCN3CCN(CC(=O)*)CCN(CC2)CC(=O)[O][In]([O]1)[O]C(=O)C3; NH(1-deoxy-D-glucityl) = OC[C@@H](O)[C@@H](O)[C@H](O)[C@@H](O)CN*; (dE)(AGLU) = D-glutamic acid bearing 1-amino-1-deoxy-D-glucitol; APAc″ = 4-amino-1-carboxymethylpiperidine, NC1CCN(CC(=O)*)CC1; dE(AGLU) = D-glutamic acid bearing 1-amino-1-deoxy-D-glucitol; Ttds(4) = 1,13-diamino-4,7,10-trioxatridecan-succinamic acid; Pro(trans-4-NH2) = O=C([C@@H]1C[C@@H](N[*:3])CN1[*:1])[*:2]; DOTA = O=C(O)CN1CCN(CC(=O)O)CCN(CC(=O)*)CCN(CC(=O)O)CC1; N4Ac = bis-(2-amino-ethylamine)-methyl-propionic acid; Trp(5-Cl) = N[C@@H](Cc1c[nH]c2ccc(Cl)cc12)C(=O)O; Pyridine(2,6-diCH2) = c1cc(C[*:1])nc(C[*:2])c1; Trp(6-F) = N[C@@H](Cc1c[nH]c2cc(F)ccc12)C(=O)O; APAc = 4-amino-1-carboxymethylpiperidine; 1Nal = N[C@@H](Cc1cccc2ccccc12)C(=O)O; mXylylene = c1cc(C[*:1])cc(C[*:2])c1; Glutaryl = O=C(CCCC(=O)[*:2])[*:1]; AGLU = 1-amino-1-deoxy-D-glucitol; Hyp = O=C(O)[C@@H]1C[C@@H](O)CN1; Cysteamide = C(CS[*:3])N[*:1]; 2Lut(3) = 2,6-lutidylidene; Ac6c = NC1(C(=O)O)CCCCC1; Api = NC1(C(=O)O)CCNCC1; Thp = NC1(C(=O)O)CCOCC1; Aib = CC(C)(N)C(=O)O

B1: DOTA-Ttds-Asp-Trp-5Clw-Pro-Glu-leu-[Cys(3MeBn)-Thp-Leu-Ile-AET] (peptide)
peptide: {DOTA-Ttds}-DW[Trp(5-Cl)]PE[dL]C[Thp]LI[Cysteamide]
modifications: linker (positions not given here) via mXylylene; not fully specified (bridges); printed as DOTA-Ttds-Asp-Trp-5Clw-Pro-Glu-leu-[Cys(3MeBn)-Thp-Leu-Ile-AET]
B2: DOTA-Ttds-Asp-Trp-5Clw-Pro-Glu-leu-[Cys(3MeBn)-Egz-Leu-Ile-AET] (peptide)
peptide: {DOTA-Ttds}-DW[Trp(5-Cl)]PE[dL]C[Ac6c]LI[Cysteamide]
modifications: linker (positions not given here) via mXylylene; not fully specified (bridges); printed as DOTA-Ttds-Asp-Trp-5Clw-Pro-Glu-leu-[Cys(3MeBn)-Egz-Leu-Ile-AET]
B3: DOTA-O2Oc-glu(AGLU)-Asp-Trp-5Clw-Tap-Glu-leu-[Cys(2Lut)-Apc(AGLU-Glutar)-Leu-Ile-Cys]-APAc-glu(AGLU)-NH2 (peptide)
peptide: DW[Trp(5-Cl)][Pro(trans-4-NH2)]E[dL]C[Api]([Glutaryl-NH(1-deoxy-D-glucityl)])LIC-{APAc-(dE)(AGLU)-NH2}
modifications: linker 7-11 via Pyridine(2,6-diCH2); not fully specified (N-terminus); printed as DOTA-O2Oc-glu(AGLU)-Asp-Trp-5Clw-Tap-Glu-leu-[Cys(2Lut)-Apc(AGLU-Glutar)-Leu-Ile-Cys]-APAc-glu(AGLU)-NH2
B4: DOTA-Ttds-Asp-Trp-5Clw-Pro-Glu-leu-[Cys(3MeBn)-Apc(DOTA)-Leu-Ile-AET] (peptide)
peptide: {DOTA-Ttds}-DW[Trp(5-Cl)]PE[dL]C[Api](DOTA)LI[Cysteamide]
modifications: linker (positions not given here) via mXylylene; not fully specified (bridges); printed as DOTA-Ttds-Asp-Trp-5Clw-Pro-Glu-leu-[Cys(3MeBn)-Apc(DOTA)-Leu-Ile-AET]
B5: DOTA-PEG6-glu(AGLU)-Asp-Trp-5Clw-Tap-Glu-leu-[Cys(2Lut)-Thp-Leu-Ile-Cys]-APAc-glu(AGLU)-NH2 (peptide)
peptide: DW[Trp(5-Cl)][Pro(trans-4-NH2)]E[dL]C[Thp]LIC-{APAc-(dE)(AGLU)-NH2}
modifications: linker 7-11 via Pyridine(2,6-diCH2); not fully specified (N-terminus); printed as DOTA-PEG6-glu(AGLU)-Asp-Trp-5Clw-Tap-Glu-leu-[Cys(2Lut)-Thp-Leu-Ile-Cys]-APAc-glu(AGLU)-NH2
B6: DOTA-Ttds-Asp-Trp-5Clw-Pro-Glu-leu-[Cys(3MeBn)-Apc-Leu-Ile-AET] (peptide)
peptide: {DOTA-Ttds}-DW[Trp(5-Cl)]PE[dL]C[Api]LI[Cysteamide]
modifications: linker (positions not given here) via mXylylene; not fully specified (bridges); printed as DOTA-Ttds-Asp-Trp-5Clw-Pro-Glu-leu-[Cys(3MeBn)-Apc-Leu-Ile-AET]

Molecular target: human Gastric Inhibitory Peptide Receptor (human) (UniProt P48546)
Assay: FACS competition with GIP-057 on CHO-K1-hGIPR cells; pIC50 category A: >8.0

Sequence of human Gastric Inhibitory Peptide Receptor (human) (P48546 22-466 limits assumed): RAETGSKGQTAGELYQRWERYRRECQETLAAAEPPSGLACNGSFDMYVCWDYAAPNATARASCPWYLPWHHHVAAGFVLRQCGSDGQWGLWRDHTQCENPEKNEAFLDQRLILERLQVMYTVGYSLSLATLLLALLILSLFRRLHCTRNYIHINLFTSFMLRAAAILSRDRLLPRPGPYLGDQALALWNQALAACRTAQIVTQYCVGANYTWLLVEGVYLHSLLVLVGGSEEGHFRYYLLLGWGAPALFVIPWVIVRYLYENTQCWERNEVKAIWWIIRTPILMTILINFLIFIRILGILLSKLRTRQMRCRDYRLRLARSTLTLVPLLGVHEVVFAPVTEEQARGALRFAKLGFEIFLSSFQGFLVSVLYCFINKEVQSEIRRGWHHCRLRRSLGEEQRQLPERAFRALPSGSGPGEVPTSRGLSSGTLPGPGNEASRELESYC

Binder | pIC50 [pic50]
Ac-D[Trp(6-F)][1Nal]PE[dL]C[Aib]LIC-{Ttds(4)-K(DOTA)-NH2} (linker 7-11 via mXylylene) [Ac-Asp-6Fw-1Ni-Pro-Glu-leu-[Cys(3MeBn)-Aib-Leu-Ile-Cys]-Ttds-Lys(DOTA)-NH2] | > 8
{AGLU-Glutaryl-APAc}-DW[Trp(5-Cl)][Hyp]E[dL]C[Api]LIC-{APAc-dE(AGLU)-NH2} (linker 7-11 via Pyridine(2,6-diCH2); not fully specified (residue 8)) | > 8
B1 | > 8
{DOTA-dE(AGLU)}-DW[Trp(5-Cl)][Hyp]E[dL]C[Thp]LIC-{APAc-dE(AGLU)-NH2} (linker 7-11 via Pyridine(2,6-diCH2)) [DOTA-glu(AGLU)-Asp-Trp-5Clw-Hyp-Glu-leu-[Cys(2Lut)-Thp-Leu-Ile-Cys]-APAc-glu(AGLU)-NH2] | > 8
B2 | > 8
B3 | > 8
{DOTA-Ttds}-DW[Trp(5-Cl)][Hyp]E[dL]C[Api](DOTA)LICK(DOTA)-NH2 (linker 7-11 via 2Lut(3)) [DOTA-Ttds-Asp-Trp-5Clw-Hyp-Glu-leu-[Cys(2Lut)-Apc(DOTA)-Leu-Ile-Cys]-Lys(DOTA)-NH2] | > 8
{DOTA-APAc″}-DW[Trp(5-Cl)]PE[dL]C[Aib]LI[Cysteamide] (linker 7-11 via mXylylene) [DOTA-APAc-Asp-Trp-5Clw-Pro-Glu-leu-[Cys(3MeBn)-Aib-Leu-Ile-AET]] | > 8
B4 | > 8
{DOTA-Ttds}-DW[Trp(5-Cl)][Hyp]E[dL]C[Thp]LICK(DOTA)-NH2 (linker 7-11 via 2Lut(3)) [DOTA-Ttds-Asp-Trp-5Clw-Hyp-Glu-leu-[Cys(2Lut)-Thp-Leu-Ile-Cys]-Lys(DOTA)-NH2] | > 8
{AGLU-Glutaryl}-DW[Trp(5-Cl)][Pro(trans-4-NH2)]E[dL]C[Api](GaNODAGA)LIC-{APAc-dE(AGLU)-NH2} (linker 7-11 via Pyridine(2,6-diCH2)) [AGLU-Glutar-Asp-Trp-5Clw-Tap-Glu-leu-[Cys(2Lut)-Apc(GaNODAGA)-Leu-Ile-Cys]-APAc-glu(AGLU)-NH2] | > 8
{AGLU-Glutaryl}-DW[Trp(5-Cl)][Pro(trans-4-NH2)]E[dL]C[Api](N4Ac)LIC-{APAc-dE(AGLU)-NH2} (linker 7-11 via Pyridine(2,6-diCH2)) [AGLU-Glutar-Asp-Trp-5Clw-Tap-Glu-leu-[Cys(2Lut)-Apc(N4Ac)-Leu-Ile-Cys]-APAc-glu(AGLU)-NH2] | > 8
B5 | > 8
{DOTA-dE(AGLU)}-DW[Trp(5-Cl)][Pro(trans-4-NH2)]E[dL]C[Api]([Glutaryl-NH(1-deoxy-D-glucityl)])LIC-{APAc-dE(AGLU)-NH2} (linker 7-11 via Pyridine(2,6-diCH2)) [DOTA-glu(AGLU)-Asp-Trp-5Clw-Tap-Glu-leu-[Cys(2Lut)-Apc(AGLU-Glutar)-Leu-Ile-Cys]-APAc-glu(AGLU)-NH2] | > 8
B6 | > 8
{DOTA(In)-dE(AGLU)-APAc}-DW[Trp(5-Cl)][Hyp]E[dL]C[Thp]LIC-{APAc-dE(AGLU)-NH2} (linker 7-11 via Pyridine(2,6-diCH2)) [InDOTA-glu(AGLU)-APAc-Asp-Trp-5Clw-Hyp-Glu-leu-[Cys(2Lut)-Thp-Leu-Ile-Cys]-APAc-glu(AGLU)-NH2] | > 8
